According to paper PMC5131957:

Target: p53CD (core domain) (human) (UniProt P04637)
Assay: ELISA
Settings: EMSA: 5 mM Tris-HCl pH 8, 1 mM MgCl2, 0.01% Triton X-100, 50 mM KCl, on ice or 25 C, 30 min, pBSK/SmaI competitor 5-50 ng; ELISA: 1x PBS, 2 mM MgCl2 …

Sequence of p53CD (core domain) (human) (P04637 94-312): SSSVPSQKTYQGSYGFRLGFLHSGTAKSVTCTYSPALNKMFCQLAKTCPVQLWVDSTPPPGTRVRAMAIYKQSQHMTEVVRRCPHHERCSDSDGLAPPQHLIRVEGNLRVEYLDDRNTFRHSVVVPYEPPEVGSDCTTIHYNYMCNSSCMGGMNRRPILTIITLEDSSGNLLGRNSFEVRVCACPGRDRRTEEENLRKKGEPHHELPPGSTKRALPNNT

TTTTTTTTTTTTTTTTTTTTTTTTTTTTTTTTTTTTTTTTTTTTTTTTTT / AAAAAAAAAAAAAAAAAAAAAAAAAAAAAAAAAAAAAAAAAAAAAAAAAA / TTTTTTTTTTTTTTTTTTTTTTTTTTTTTTTTTTTTTTTTTTTTTTTTTT [T.A.T triplex, biotinylated]
Kd: 0.0168 µM
